Source: patent publication USRE49280 (University of Texas, dated 2022)

Target: T1, TGF-β2 K25R I92V K94R (UniProt P61812 303-414, K25R; I92V; K94R)
T1 construct: mature; Immobilised on the SPR sensor surface
T1 sequence (looked up): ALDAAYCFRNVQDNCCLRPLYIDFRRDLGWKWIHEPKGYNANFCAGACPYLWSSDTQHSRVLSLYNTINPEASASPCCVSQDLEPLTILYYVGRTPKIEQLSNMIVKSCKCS
Assay: SPR, receptor injected over immobilised TGF-β2 K25R I92V K94R

B1: TGF-β type III receptor endoglin-like domain (receptor)
chain: GPEPSTRCELSPINASHPVQALMESFTVLSGCASRGTTGLPREVHVLNLRSTDQGPGQRQREVTLHLNPIASVHTHHKPIVFLLNSPQPLVWHLKTERLAAGVPRLFLVSEGSVVQFPSGNFSLTAETEERNFPQENEHLLRWAQKEYGAVTSFTELKIARNIYIKVGEDQVFPPTCNIGKNFLSLNYLAEYLQPKAAEGCVLPSQPHEKEVHIIELITPSSNPYSAFQVDIIVDIRPAQEDPEVVKNLVLILKCKKSVNWVIKSFDVKGNLKVIAPNSIGFGKESERSMTMTKLVRDDIPSTQENLMKWALDNGYRPVTSYTMAPVANRFHLRLENNEEMRDEEVHTIPPELRILLDPD
notes: also called TβRIIIE; BGE
maximal mass-normalized response relative to that for TβRII: ~0.5 fold of TβRII
